± gives the half width of the 95% confidence interval.
Key:
[1] = folding stability dG unfold from trypsin proteolysis; higher = more stable
Summary of the method: (§1)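 K50 was inferred by Bayesian fitting of sequencing counts obtained after protease digestion of designed mini-proteins. Unfolding free energy was derived by comparison with a sequence-predicted unfolded-state K50 and a shared folded-state K50, for each protease or both combined. The mini-proteins were under 80 residues, had no cysteine, were carried in a PA-tagged cDNA display construct, and were kept only if AlphaFold2 dimer inter-PAE exceeded 15.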

[2] = folding stability dG unfold (combined trypsin and chymotrypsin); higher = more stable
Summary of the method: as §1

[3] = folding stability dG unfold from chymotrypsin proteolysis; higher = more stable
Summary of the method: as §1

Sequence | folding stability dG unfold [1] [kcal/mol] | folding stability dG unfold [2] [kcal/mol] | folding stability dG unfold [3] [kcal/mol]
SAGGSAGGSAGAEELAKKLKELGFEVKVEKNEDGSLTLTVKFKPKPKPKKVVTKDGKEVKSAGGSAGGSAGG [r17_503_TrROS_Hall] | 0.579 ± 0.076 | 1.61 ± 0.26 | 1.9 ± 0.11
SAGGSAGGSAGAFVGYRDEGGRYWLRTPEGELELDSEEDALEWADFLRANGIPLLSEPRPSAGGSAGGSAGG [r17_35_TrMRF] | 1.08 ± 0.032 | 1.43 ± 0.073 | 1.59 ± 0.11
SAGGSAGGSAGAGKVVFEVDIKTFLGKRKDGSDAPKTIIEIKVFDIAPLDPNDPVLKALISAGGSAGGSAGG [r11_236_TrMRF] | 2.28 ± 0.11 | 3.26 ± 0.22 | 3.54 ± 0.15
SAGGSAGGSAGALPFKVKVVEVEVDGDEVTVKVVAELPTGTATVELKLGGKLETLTISPVSAGGSAGGSAGG [r17_45_TrMRF] | 1.49 ± 0.19 | 2.16 ± 0.24 | 2.47 ± 0.13
SAGGSAGGSAGAPNIVVVTLTRDALFYNPVEGKWEVKPVTLTRAFTSKEEADKWLEEIGLSAGGSAGGSAGG [r11_984_TrMRF] | 2.95 ± 0.091 | 3.5 ± 0.095 | 3.84 ± 0.042
SAGGSAGGSAGAPPEGAKPVEEETVPIEIQMRNDDDGKPIMPIKFEVRVYKFPDGIFISISAGGSAGGSAGG [r11_415_TrROS] | 1.34 ± 0.13 | 2.45 ± 0.21 | 2.91 ± 0.042
SAGGSAGGSAGAYRVEVNVELTPEAREAFLKNPELPADAEIPVVVSGRVEPVPLGPEGVLSAGGSAGGSAGG [r17_194_TrMRF] | -0.58 ± 0.2 | -0.143 ± 0.12 | 0.0793 ± 0.14
SAGGSAGGSAGDDNDGKKKFPMTIKIPPIPIEIPPGMKITSWIPIRIPGGLEFPIIYITPSAGGSAGGSAGG [r11_388_TrROS] | 0.923 ± 0.045 | 1.03 ± 0.098 | 1.1 ± 0.12
SAGGSAGGSAGDIDPEDDIFYLTVRLKDGVPFVLPVRYDDIPFIPPEFVEEATFHKPKDISAGGSAGGSAGG [r11_779_TrMRF] | 0.365 ± 0.096 | 0.246 ± 0.083 | 0.0924 ± 0.18
SAGGSAGGSAGDKPITIFIPGTPDDIKDYIEDEGFKIKDIEIQYHKNKDGKYWVMVTIRVSAGGSAGGSAGG [r11_632_TrROS] | 2.87 ± 0.18 | 3.19 ± 0.25 | 3.33 ± 0.13
SAGGSAGGSAGDNIYVFEIDIKIKPRKDPDGKWQPEIEINIKIKDIKPIPPNDPELKDLLSAGGSAGGSAGG [r11_236_TrROS] | 2 ± 0.05 | 1.94 ± 0.07 | 1.99 ± 0.036
SAGGSAGGSAGDVEVRFEVKFTPDGTLIIKAEIRLPDIPDVTIRVEAVILPNGEILVKVSSAGGSAGGSAGG [r11_483_TrMRF] | 3.68 ± 0.11 | 3.68 ± 0.16 | 3.06 ± 0.15
SAGGSAGGSAGDWIMFNFTYKDPGDPGKERTITILIPIPPPPPPEPKPVKDPNGNEGPVYSAGGSAGGSAGG [r11_419_TrROS] | 1.69 ± 0.1 | 1.99 ± 0.18 | 1.86 ± 0.08
SAGGSAGGSAGEEVLTLTFPVPPDAPPPGLEAIRESLPGLEDVELDAEELPDGTVRVVLSSAGGSAGGSAGG [r17_205_TrMRF] | -0.558 ± 0.19 | -0.452 ± 0.68 | -0.172 ± 0.4
SAGGSAGGSAGEGLKVTVTVSGELDPEKGGLSLRVEIRVEPVLIPPPVLPPAADNLSNLLSAGGSAGGSAGG [r17_454_TrMRF] | 1.94 ± 0.072 | 1.55 ± 0.09 | 0.912 ± 0.079
SAGGSAGGSAGEKTLKIVADSEEEAEALAKELAEKYNLEVTIERNPEEEGKYVITIKIKPSAGGSAGGSAGG [r11_797_TrROS_Hall] | 2.46 ± 0.14 | 3.17 ± 0.17 | 3.5 ± 0.045
SAGGSAGGSAGEMYKIKIFNKETGKELTLVFESEEEAKEALKKKFPNAKIEIEKISKEELSAGGSAGGSAGG [r11_978_TrROS_Hall] | 2.38 ± 0.13 | 2.8 ± 0.23 | 3.1 ± 0.13
SAGGSAGGSAGEVVRVYPTPDGTTVTITPHPTTYTVTTTSPDGVPTTTPVSPAEVAALGLSAGGSAGGSAGG [r17_127_JUSTAS] | -0.0385 ± 0.09 | -0.0994 ± 0.2 | -0.25 ± 0.3
SAGGSAGGSAGEWVTIPIKNPEKLKDLPGLPIKDVEPNGGKPTITFNGDDPERIKEALNDSAGGSAGGSAGG [r11_65_TrROS] | 0.804 ± 0.057 | 0.682 ± 0.3 | 0.498 ± 0.063
SAGGSAGGSAGFKSVTIGSGTGGLTLTITDVTTGKNTVVNATSLEEAEKIGKEKGWKIILSSAGGSAGGSAG [r3_67_JUSTAS] | 0.604 ± 0.07 | 0.305 ± 0.15 | -0.281 ± 0.4
SAGGSAGGSAGGAAPDDVKIEIEWDVGVMTMEMMNPGGQPHKMYMIMVSLKIEIEPNADSAGGSAGGSAGGS [r10_1212_TrROS] | 3.74 ± 0.25 | 4.95 ± 0.18 | 5.09 ± 0.18
SAGGSAGGSAGGAMAPDEPVERVEVTYKTGRLTFPGKPVLKKEKVVLKFTLTVTDPALLSAGGSAGGSAGGS [r10_745_JUSTAS] | -0.234 ± 0.33 | 0.0101 ± 0.15 | -0.0228 ± 0.28
SAGGSAGGSAGGAMTVETVELPSGEVVTLEYDPASGRVLTTVETPDSVERTEDPLEPPAASAGGSAGGSAGG [r7_63_JUSTAS] | 0.302 ± 0.015 | -0.0846 ± 0.19 | -0.403 ± 0.11
SAGGSAGGSAGGAPDLSLPDVRPRVLVRNPATGKWYEFTSLEELEREIKSGRAEVLEISSAGGSAGGSAGGS [r10_520_TrMRF] | 0.327 ± 0.088 | 0.573 ± 0.16 | 0.704 ± 0.11
SAGGSAGGSAGGAPLVEVEEVETRRVKDPATKRWYRRTRVRVRNKETGEWYELEFVEPLSAGGSAGGSAGGS [r10_535_TrROS_Hall] | 2.49 ± 0.025 | 2.54 ± 0.048 | 2.599 ± 0.02
SAGGSAGGSAGGDAPNTTVTVTLKAEVYYDPSTGALVVKVTAYFPATNTTVTLEFTFPLSAGGSAGGSAGGS [r10_187_TrMRF] | 3.66 ± 0.24 | 4.76 ± 0.72 | 4.66 ± 0.25
